We go through four molecules from article PMC3095670.

Like-named read-outs stand apart in the source and are kept apart here.

In data set [1] the target is T1, DNA polymerase beta 8-kDa domain (isolated) (rat, UniProt P06766 1-87). Briefly: FRET.
The target of data set [2] is T2, DNA polymerase beta, intact (rat, UniProt P06766 1-335). The data set is described as follows: fluorescence titration.
The target of data set [3] is T2, DNA polymerase beta, intact. Briefly: fluorescence titration. The source holds these as a separate data set.
Data set [4] deals with T1, DNA polymerase beta 8-kDa domain …. Briefly: fluorescence titration.

B1: 5'-Fl-dT(pT)19-CP-3' (ssDNA)
DNA: TTTTTTTTTTTTTTTTTTTT
As to B1, in data set [1], the binding result is on record as “binds”.

B2: dεA(pεA)13 (ssDNA)
DNA: AAAAAAAAAAAAAA
modifications: all adenines 1,N6-etheno-A (chloroacetaldehyde)
B2: in data set [2], the binding result was “binds”.

B3: dεA(pεA)19 (ssDNA)
DNA: AAAAAAAAAAAAAAAAAAAA
modifications: all adenines 1,N6-etheno-A (chloroacetaldehyde)
With B3, the binding result in data set [3] is “binds”.

B4: dεA(pεA)9 (ssDNA)
DNA: AAAAAAAAAA
modifications: all adenines 1,N6-etheno-A (chloroacetaldehyde)
On to B4, for which, in data set [4], the binding result is reported as “binds”.
